Data taken from patent US20240360223A1 (DRAGONFLY THERAPEUTICS, published 2024).
Several values for one entry are separate records, joined by “and”; a condition that tells them apart may be missing. Equal entries are not always repeated.

Experiments:
[1] = biological target: T1, human BAFF-R expressed on cells (human, UniProt Q96RJ3 1-184); assay: flow cytometry, Rs4;11 cells
T1 construct: Cell surface BAFF-R, endogenous on B cell lines and primary B cells or overexpressed on isogenic CHO cells; also called hBAFF-R; hBAFF-R-CHO

[2] = biological target: T2, human NKG2D (recombinant mFc-tagged dimer) (human, UniProt P26718 78-216); assay: SPR, average
T2 construct: also called hNKG2D
T2 sequence (looked up): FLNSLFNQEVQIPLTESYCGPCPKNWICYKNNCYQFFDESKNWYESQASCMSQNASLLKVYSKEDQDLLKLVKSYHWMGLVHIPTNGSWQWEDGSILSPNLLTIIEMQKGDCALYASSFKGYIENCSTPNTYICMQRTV
Source text: (§1) NKG2D is a native dimer, therefore recombinant mFc-tagged NKG2D dimer was used for this experiment. Two different fits were utilized to obtain the equilibrium affinity data: steady state affinity fit and kinetic fit.

cynomolgus FcRn [3] = biological target: T3, cynomolgus FcRn (cynomolgus, UniProt Q8SPV9 24-297; Q8SPW0 21-119); assay: SPR, pH 6.0, steady state; pH 6.0; second replicate
T3 construct: also called Cyno FcRn

human CD16a F158 [4] = biological target: T4, human CD16a F158 (human, UniProt P08637 17-208); assay: SPR, steady state
[5] = biological target: T5, cynomolgus NKG2D (recombinant mFc-tagged dimer) (cynomolgus, UniProt P61252 78-216); assay: SPR, average
T5 construct: also called cyno NKG2D
T5 sequence (looked up): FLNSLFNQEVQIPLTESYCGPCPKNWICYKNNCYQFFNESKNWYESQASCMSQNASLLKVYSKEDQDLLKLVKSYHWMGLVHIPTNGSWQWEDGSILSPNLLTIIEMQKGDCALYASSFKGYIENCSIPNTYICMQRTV

[6] = biological target: T5, cynomolgus NKG2D (recombinant …); assay: SPR
Source text: (§2) Two different fits were utilized to obtain the equilibrium affinity data: steady state affinity fit and kinetic fit.

human CD32a R131 = biological target: T6, human CD32a R131 (human, UniProt P12318 36-218, limits assumed); assay: SPR, steady state
T6 construct: also called FcγRIIa R131
T6 sequence (looked up): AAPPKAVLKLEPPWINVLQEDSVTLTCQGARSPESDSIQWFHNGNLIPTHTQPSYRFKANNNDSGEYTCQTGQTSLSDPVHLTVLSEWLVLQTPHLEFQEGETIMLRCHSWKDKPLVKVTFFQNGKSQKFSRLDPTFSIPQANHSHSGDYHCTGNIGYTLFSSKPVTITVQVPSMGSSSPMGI

[7] = biological target: T1, human BAFF-R expressed on cells; assay: cell-based or functional assay
[8] = biological target: T1, human BAFF-R expressed on cells; assay: flow cytometry, BJAB cells, control
[9] = biological target: T5, cynomolgus NKG2D (recombinant …); assay: SPR, 1:1 kinetic fit
Source text: as §1

human CD16a V158 [10] = biological target: T7, human CD16a V158 (human, UniProt P08637 17-208); assay: SPR, after 4 weeks at 40 °C
T7 construct: also called hCD16aV; hCD16a V158

[11] = biological target: T2, human NKG2D (recombinant mFc-tagged …); assay: SPR, after 4 weeks at 40 °C
cynomolgus CD16 [12] = biological target: T8, cynomolgus CD16 (cynomolgus, UniProt Q8SPW2 17-208, limits assumed); assay: SPR
T8 construct: also called Cyno CD16; cynomolgus FcγRIII

human FcRn = human FcRn (human, UniProt P55899 24-297; P61769 21-119); assay: SPR, pH 6.0, steady state; pH 6.0; first replicate
cynomolgus FcRn [13] = biological target: T3, cynomolgus FcRn; assay: SPR, pH 6.0, steady state, average; pH 6.0; average of four replicates
cynomolgus CD16 [14] = biological target: T8, cynomolgus CD16; assay: SPR, cynomolgus FcγRIII, summary table
[15] = biological target: T9, cynomolgus monkey BAFF-R expressed on cells (cynomolgus monkey); assay: flow cytometry, CHO-cBAFF-R cells
T9 construct: whole, on cells; also called cBAFF-R; cynoBAFF-R

[16] = biological target: T1, human BAFF-R expressed on cells; assay: flow cytometry, BJAB cells
[17] = biological target: T5, cynomolgus NKG2D (recombinant …); assay: SPR, steady state fit, average
Source text: as §2

[18] = biological target: T5, cynomolgus NKG2D (recombinant …); assay: SPR, kinetics fit, average
Source text: as §2

human CD64 = biological target: T10, human CD64 (human, UniProt P12314 16-288, limits assumed); assay: SPR
T10 construct: also called FcγRI
Method: Binding analyses as described in this Example were performed using SPR, as described in Example 4.

[19] = biological target: T9, cynomolgus monkey BAFF-R expressed on …; assay: flow cytometry, cynomolgus BAFF-R CHO cells
Source text: Isogenic cell lines overexpressing human and cynomolgus BAFF-R on the backbone of CHO cell line were designed.

human CD16a V158 [20] = biological target: T7, human CD16a V158; assay: SPR, average
human CD16a F158 [21] = biological target: T4, human CD16a F158; assay: SPR, steady state, average

T8 sequence (Q8SPW2 17-208 limits assumed): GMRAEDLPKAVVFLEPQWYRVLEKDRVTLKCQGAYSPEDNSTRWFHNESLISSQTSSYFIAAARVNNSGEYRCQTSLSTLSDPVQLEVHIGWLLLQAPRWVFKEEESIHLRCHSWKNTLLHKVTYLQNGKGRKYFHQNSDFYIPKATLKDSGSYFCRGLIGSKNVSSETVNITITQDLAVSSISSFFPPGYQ
T10 sequence (P12314 16-288 limits assumed): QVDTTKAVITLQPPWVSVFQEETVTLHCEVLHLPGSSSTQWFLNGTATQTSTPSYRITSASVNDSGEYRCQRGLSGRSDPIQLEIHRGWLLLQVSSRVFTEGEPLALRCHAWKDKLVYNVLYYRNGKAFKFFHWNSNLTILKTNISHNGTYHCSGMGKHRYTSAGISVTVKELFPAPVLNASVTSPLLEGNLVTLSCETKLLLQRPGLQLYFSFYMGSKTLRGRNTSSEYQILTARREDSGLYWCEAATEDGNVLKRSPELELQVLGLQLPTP
T4 sequence (P08637 17-208 limits assumed): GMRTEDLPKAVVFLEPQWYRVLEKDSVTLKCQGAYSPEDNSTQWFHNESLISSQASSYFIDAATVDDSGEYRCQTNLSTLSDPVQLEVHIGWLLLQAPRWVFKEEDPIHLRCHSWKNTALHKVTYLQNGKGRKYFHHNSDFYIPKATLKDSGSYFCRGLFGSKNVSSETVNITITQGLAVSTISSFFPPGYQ
T7 sequence (P08637 17-208 F176V limits assumed): as the sequence (P08637 17-208 limits assumed) above, with F160V counted along it
T3 sequence (Q8SPV9 24-297 limits assumed, chain 1 of 2): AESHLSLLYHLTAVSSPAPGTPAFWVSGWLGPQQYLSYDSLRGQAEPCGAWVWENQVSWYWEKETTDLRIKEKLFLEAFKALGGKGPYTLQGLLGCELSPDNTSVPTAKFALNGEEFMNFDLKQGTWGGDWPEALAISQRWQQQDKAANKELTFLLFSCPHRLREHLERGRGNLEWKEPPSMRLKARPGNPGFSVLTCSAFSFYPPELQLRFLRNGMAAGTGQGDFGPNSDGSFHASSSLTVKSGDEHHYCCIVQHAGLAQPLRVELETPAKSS
T3 sequence (Q8SPW0 21-119 limits assumed, chain 2 of 2): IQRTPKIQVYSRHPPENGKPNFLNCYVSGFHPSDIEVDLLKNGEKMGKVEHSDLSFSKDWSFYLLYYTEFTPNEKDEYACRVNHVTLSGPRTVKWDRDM
Chain of human FcRn (P55899 24-297 limits assumed, chain 1 of 2): as the sequence (Q8SPV9 24-297 limits assumed, chain 1 of 2) above, with D39N, Q44E, S99G, G189S, N190S, M217L, T269S counted along it
Chain of human FcRn (P61769 21-119 limits assumed, chain 2 of 2): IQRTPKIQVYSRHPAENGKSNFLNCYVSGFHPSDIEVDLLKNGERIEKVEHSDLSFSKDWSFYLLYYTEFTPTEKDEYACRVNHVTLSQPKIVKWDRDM

B1: AB1424/AB1612 F3′ TriNKET (bispecific antibody, human IgG1, kappa)
chain: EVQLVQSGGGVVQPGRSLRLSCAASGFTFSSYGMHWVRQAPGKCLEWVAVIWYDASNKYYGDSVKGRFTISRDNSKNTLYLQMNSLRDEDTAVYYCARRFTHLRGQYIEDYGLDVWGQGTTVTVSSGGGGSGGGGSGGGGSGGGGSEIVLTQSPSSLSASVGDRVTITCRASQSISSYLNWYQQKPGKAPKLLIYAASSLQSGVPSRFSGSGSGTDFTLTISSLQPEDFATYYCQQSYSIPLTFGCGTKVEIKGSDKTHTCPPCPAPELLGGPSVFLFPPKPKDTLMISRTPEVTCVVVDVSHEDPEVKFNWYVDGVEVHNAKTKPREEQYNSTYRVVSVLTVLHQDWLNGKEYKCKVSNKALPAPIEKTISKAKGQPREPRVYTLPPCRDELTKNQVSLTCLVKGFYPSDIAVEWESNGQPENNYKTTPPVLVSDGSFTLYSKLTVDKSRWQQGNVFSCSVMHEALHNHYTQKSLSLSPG
heavy: EVQLVESGGGLVKPGGSLRLSCAASGFTFSSYSMNWVRQAPGKGLEWVSSISSSSSYIYYADSVKGRFTISRDNAKNSLYLQMNSLRAEDTAVYYCARGAPIGAAAGWFDPWGQGTLVTVSSASTKGPSVFPLAPSSKSTSGGTAALGCLVKDYFPEPVTVSWNSGALTSGVHTFPAVLQSSGLYSLSSVVTVPSSSLGTQTYICNVNHKPSNTKVDKKVEPKSCDKTHTCPPCPAPELLGGPSVFLFPPKPKDTLMISRTPEVTCVVVDVSHEDPEVKFNWYVDGVEVHNAKTKPREEQYNSTYRVVSVLTVLHQDWLNGKEYKCKVSNKALPAPIEKTISKAKGQPREPQVCTLPPSRDELTENQVSLTCLVKGFYPSDIAVEWESNGQPENNYKTTPPVLDSDGSFFLYSWLTVDKSRWQQGNVFSCSVMHEALHNHYTQKSLSLSPG
light: DIQMTQSPSSVSASVGDRVTITCRASQGISSWLAWYQQKPGKAPKLLIYAASSLQSGVPSRFSGSGSGTDFTLTISSLQPEDFATYYCQQGVSFPRTFGGGTKVEIKRTVAAPSVFIFPPSDEQLKSGTASVVCLLNNFYPREAKVQWKVDNALQSGNSQESVTEQDSKDSTYSLSSTLTLSKADYEKHKVYACEVTHQGLSSPVTKSFNRGEC
notes: Chain S: anti-BAFF-R scFv-CH2-CH3; chain H: anti-NKG2D VH-CH1-CH2-CH3; chain L: anti-NKG2D VL-CL; also called AB1612-002
[1]
  EC50: 0.09 nM
  Max FOB: 4 fold over background
[2]
  koff: 0.11 s⁻¹
  kon: 240000 M⁻¹ s⁻¹
Cynomolgus FcRn [3]
  Kd: 1000 nM
Human CD16a F158 [4]
  Kd: 1330 nM and 1260 nM and 1370 nM and 1430 nM
[5]
  koff: 0.11 s⁻¹
  kon: 200000 M⁻¹ s⁻¹
[6]
  koff: 0.11 s⁻¹ and 0.12 s⁻¹
  kon: 180000 M⁻¹ s⁻¹ and 190000 M⁻¹ s⁻¹
Human CD32a R131
  Kd: 1500 nM and 1300 nM and 1200 nM
[7]
  KHYG-1-CD16a cytotoxicity on BJAB cells, EC50: 0.03 nM
[8]
  EC50: 0.82 nM
[9]
  Kd: 498 nM and 516 nM and 528 nM and 525 nM
Human CD16a V158 [10]
  Kd: 145 nM
  koff: 0.016 s⁻¹
  kon: 120000 M⁻¹ s⁻¹
[11]
  koff: 0.1 s⁻¹
  kon: 210000 M⁻¹ s⁻¹
Cynomolgus CD16 [12]
  Kd: 261 nM and 269 nM and 283 nM and 260 nM
  koff: 0.02 s⁻¹ and 0.021 s⁻¹
  kon: 78000 M⁻¹ s⁻¹ and 72000 M⁻¹ s⁻¹
Human FcRn
  Kd: 1000 nM
Cynomolgus FcRn [13]
  Kd: 1000 nM
Cynomolgus CD16 [14]
  Kd: 271 nM
[15]
  EC50: 0.96 nM
  Max FOB: 67 fold over background
[16]
  EC50: 0.37 nM
  Max FOB: 16 fold over background
[17]
  Kd: 609 nM
[18]
  Kd: 596 nM
Human CD64
  Kd: 2.9 nM and 3.1 nM and 3.4 nM and 3.2 nM
  koff: 0.00022 s⁻¹ and 0.00023 s⁻¹
  kon: 77000 M⁻¹ s⁻¹ and 73000 M⁻¹ s⁻¹ and 69000 M⁻¹ s⁻¹ and 72000 M⁻¹ s⁻¹
[19]
  EC50: 0.9 nM
  Max FOB: 141 fold over background
Human CD16a V158 [20]
  koff: 0.014 s⁻¹
  kon: 110000 M⁻¹ s⁻¹
Human CD16a F158 [21]
  Kd: 1350 nM
